Substitutions are numbered along the chain they refer to.

A word on the Kd: it is a measure of binding affinity in units of concentration. For orientation: koff means the rate constant with which the complex falls apart. In general, kon refers to the second-order rate constant of association.

The target of this assay is T1, ANTIBODY EXPRESSION CONTROL.
T1 construct: also called mouse anti-canine antibody (capture reagent of the expression control ELISA)
Nature of the assay: SPR Biacore, expression control. The method, then:
The affinity with which candidate mAbs bind canine, feline, and human (SEQ ID NO: 122; Human_OSMR) (R&D Systems, Minneapolis, Minn.) OSMR was determined using surface plasmon resonance (SPR) on a Biacore system (Biacore Life Sciences (GE Healthcare), Uppsala, Sweden). To avoid affinity differences associated with differential surface preparation that can occur when immobilizing antibodies to surfaces; OSMR from each species was directly conjugated to individual surfaces. Immobilization was obtained by amine coupling 5 μg/mL OSMR using N-hydroxysuccinimide (NHS)/1-Ethyl-3-(3-dimethylaminopropyl) carbodiimide (EDC) chemistry. Chips were quenched with ethanolamine and the affinity with which all candidate mAbs bound to the immobilized OSMR was evaluated. All curves were fit to a 1:1 model. […] Results for affinity measurements are described herein.
Data from an ELISA represents an equilibrium state where the antibody is allowed to associate and dissociate over a one-hour period resulting in steady-state binding. Using Biacore, the target protein is immobilized to a surface and the antibody is passed over this surface in a mobile liquid phase. Protein-protein interaction is determined from changes in the surface resonance which allows for calculation of association (kₐ), disassociation (kd), and affinity constant (KD). While not wishing to be bound to one hypothesis we present data from ELISA and Biacore experiments, using the same preparation of antibody, that may result in agreement between the two methods with respect to binding but also may show contradictory results due to the nature of the binding kinetics and different assay dynamics. The data presented in Table A (in combination with experimental results from yeast display mutational analysis in Example 21) allow for the definition of a structure:function relationship to be defined between the anti-OSMR antibodies described here and their ability to bind and block IL-31 and OSM-mediated signaling through the OSMR receptor.
(SPR reads the build-up and loss of mass on a sensor chip optically.)

B1: Mu_09E09_VL (SEQ ID NO: 37)_N34A (antibody, V domains shown)
VH: DVKLVESGEGLVKPGGSLKLSCAASGFTFSSYAMSWVRQTPEKRLEWVAYISSGGDYIYYADTVKGRFTISRDNARNTLYLQMSSLKSEDTAMYYCTRDPITGTFAYWGQGTLVTVSA
VL: DLQMTQTTSSLSASLGDRVTISCRASQDINNYLAWYQQKPDGTVKLLIYYTSTLHSGVPSRFSGSGSGTDYSLTISNLEQEDIATYFCQQGNTLPWTFGGGTKLEIKR
Consider B1, for which the Kd turned out to be 0.317 nM, the koff worked out at 8.91e-05 s⁻¹ and the kon came to 281000 M⁻¹ s⁻¹.

B2: Mu_10F07_VL (SEQ ID NO: 41)_T97A (antibody, V domains shown)
VH: B1 VH with A49T, I58F
VL: B1 VL with L2I, N30T, A34N, Y71F, N92H, T93M, T97A
Take B2: the Kd was 0.805 nM, the koff stood at 8.07e-05 s⁻¹ and the kon amounted to 100000 M⁻¹ s⁻¹.

B3: Mu_09E09_VL (SEQ ID NO: 37)_L94A (antibody, V domains shown)
VH: B1 VH
VL: B1 VL with A34N, L94A
B3: the Kd worked out at 0.25 nM, the koff came out at 7.63e-05 s⁻¹ and the kon turned out to be 305000 M⁻¹ s⁻¹.

B4: Mu_09E09_VL (SEQ ID NO: 37)_W96A (antibody, V domains shown)
VH: B1 VH
VL: B1 VL with A34N, W96A
For the molecule B4, the Kd turned out to be 0.345 nM, the koff was 9.76e-05 s⁻¹ and the kon stood at 283000 M⁻¹ s⁻¹.

B5: Mu_10F07_VL (SEQ ID NO: 41)_L33A (antibody, V domains shown)
VH: B1 VH with A49T, I58F
VL: B1 VL with L2I, N30T, L33A, A34N, Y71F, N92H, T93M
For B5, the Kd is 0.812 nM, the koff is 8.43e-05 s⁻¹ and the kon was determined as 104000 M⁻¹ s⁻¹.

B6: Mu_09E09_VL (SEQ ID NO: 37)_N92A (antibody, V domains shown)
VH: B1 VH
VL: B1 VL with A34N, N92A
Consider B6, for which the Kd was determined as 0.257 nM, the koff amounted to 7.59e-05 s⁻¹ and the kon is 296000 M⁻¹ s⁻¹.

B7: Mu_10F07_VH (SEQ ID NO: 39)_Y107A (antibody, V domains shown)
VH: B1 VH with A49T, I58F, Y107A
VL: B1 VL with L2I, N30T, A34N, Y71F, N92H, T93M
Regarding B7, the Kd was found to be 0.446 nM, the koff was found to be 4.44e-05 s⁻¹ and the kon came to 99500 M⁻¹ s⁻¹.

B8: Mu_09E09_VL (SEQ ID NO: 37)_Q90A (antibody, V domains shown)
VH: B1 VH
VL: B1 VL with A34N, Q90A
As for B8, the Kd stood at 0.249 nM, the koff worked out at 7.12e-05 s⁻¹ and the kon stood at 286000 M⁻¹ s⁻¹.

B9: Mu_09E09_VL (SEQ ID NO: 37)_G91A (antibody, V domains shown)
VH: B1 VH
VL: B1 VL with A34N, G91A
As for B9, the Kd turned out to be 0.306 nM, the koff is 8.96e-05 s⁻¹ and the kon came to 292000 M⁻¹ s⁻¹.

B10: Mu_10F07_VL (SEQ ID NO: 41)_T53A (antibody, V domains shown)
VH: B1 VH with A49T, I58F
VL: B1 VL with L2I, N30T, A34N, T53A, Y71F, N92H, T93M
With B10, the Kd was determined as 2.07 nM, the koff amounted to 0.000275 s⁻¹ and the kon amounted to 132000 M⁻¹ s⁻¹.

B11: Mu_10F07_VH (SEQ ID NO: 39)_D99A (antibody, V domains shown)
VH: B1 VH with A49T, I58F, D99A
VL: B1 VL with L2I, N30T, A34N, Y71F, N92H, T93M
With B11, the Kd turned out to be 1.01 nM, the koff came to 0.000118 s⁻¹ and the kon is 117000 M⁻¹ s⁻¹.

B12: Mu_10F07_VL (SEQ ID NO: 41)_W96A (antibody, V domains shown)
VH: B1 VH with A49T, I58F
VL: B1 VL with L2I, N30T, A34N, Y71F, N92H, T93M, W96A
Regarding B12, the Kd is 0.884 nM, the koff was 9.49e-05 s⁻¹ and the kon was found to be 107000 M⁻¹ s⁻¹.

B13: Mu_10F07_VL (SEQ ID NO: 41)_Y50A (antibody, V domains shown)
VH: B1 VH with A49T, I58F
VL: B1 VL with L2I, N30T, A34N, Y50A, Y71F, N92H, T93M
As for B13, the Kd is 0.6 nM, the koff was 0.000105 s⁻¹ and the kon is 174000 M⁻¹ s⁻¹.

B14: Mu_09E09_VL (SEQ ID NO: 37)_Y50A (antibody, V domains shown)
VH: B1 VH
VL: B1 VL with A34N, Y50A
With B14, the Kd was found to be 0.257 nM, the koff was found to be 7.96e-05 s⁻¹ and the kon worked out at 310000 M⁻¹ s⁻¹.

B15: Mu_10F07_VH (SEQ ID NO: 39)_I101A (antibody, V domains shown)
VH: B1 VH with A49T, I58F, I101A
VL: B1 VL with L2I, N30T, A34N, Y71F, N92H, T93M
B15: the Kd was 0.445 nM, the koff came out at 4.49e-05 s⁻¹ and the kon worked out at 101000 M⁻¹ s⁻¹.

B16: Mu_19F07_VH (SEQ ID NO: 47)_Y33A (antibody, V domains shown)
VH: EVKLVESEGGLVQPGSSMKLSCTASGFTFSDYAMAWVRQVPEKGLEWVANINYDGSSTYYLDSLKSRFIISRDNAKNILYLQMSSLKSEDTATYYCARGLTWDFDVWGTGTTVTVSS
VL: DIVMTQSHKFMSPSVGDRVSITCKASQDVDTAVAWYQQKPGQSPKLLIYLASTRHTGVPDRFTGSGSGTDFTLTISNVQSEDLADYFCQQYSRFPLTFGAGTKLELKR
With B16, the Kd came out at 0.202 nM, the koff was found to be 6.08e-05 s⁻¹ and the kon came to 301000 M⁻¹ s⁻¹.

B17: Mu_19F07_VL (SEQ ID NO: 49)_Q90A (antibody, V domains shown)
VH: B16 VH with A33Y
VL: B16 VL with Q90A
With B17, the Kd was 0.161 nM, the koff was 5.29e-05 s⁻¹ and the kon was 329000 M⁻¹ s⁻¹.

B18: Mu_19F07_VL (SEQ ID NO: 49)_L50A (antibody, V domains shown)
VH: B16 VH with A33Y
VL: B16 VL with L50A
B18: the Kd was 0.164 nM, the koff amounted to 4.8e-05 s⁻¹ and the kon worked out at 293000 M⁻¹ s⁻¹.

B19: Mu_19F07_VL (SEQ ID NO: 49)_Q89A (antibody, V domains shown)
VH: B16 VH with A33Y
VL: B16 VL with Q89A
Turning to B19, the Kd came out at 0.135 nM, the koff turned out to be 4.3e-05 s⁻¹ and the kon amounted to 319000 M⁻¹ s⁻¹.

B20: Mu_19F07_VH (SEQ ID NO: 47)_F104A (antibody, V domains shown)
VH: B16 VH with A33Y, F104A
VL: B16 VL
As for B20, the Kd was 0.156 nM, the koff stood at 5.09e-05 s⁻¹ and the kon worked out at 326000 M⁻¹ s⁻¹.

B21: Mu_19F07_VH (SEQ ID NO: 47)_Y59A (antibody, V domains shown)
VH: B16 VH with A33Y, Y59A
VL: B16 VL
Take B21: the Kd turned out to be 0.359 nM, the koff turned out to be 0.000116 s⁻¹ and the kon was 324000 M⁻¹ s⁻¹.

B22: Mu_19F07_VH (SEQ ID NO: 47)_Y60A (antibody, V domains shown)
VH: B16 VH with A33Y, Y60A
VL: B16 VL
Turning to B22, the Kd is 4.06 nM, the off-rate constant (koff) turned out to be 0.00061 s⁻¹ and the kon was 150000 M⁻¹ s⁻¹.

B23: Mu_19F07_VH (SEQ ID NO: 47)_W102A (antibody, V domains shown)
VH: B16 VH with A33Y, W102A
VL: B16 VL
On to B23, for which the Kd stood at 0.139 nM, the koff turned out to be 4.35e-05 s⁻¹ and the association rate constant (kon) stood at 312000 M⁻¹ s⁻¹.

B24: Mu_19F07_VL (SEQ ID NO: 49)_F94A (antibody, V domains shown)
VH: B16 VH with A33Y
VL: B16 VL with F94A
As to B24, the Kd turned out to be 0.16 nM, the koff was 5.35e-05 s⁻¹ and the kon turned out to be 335000 M⁻¹ s⁻¹.

B25: Mu_19F07_VL (SEQ ID NO: 49)_T53A (antibody, V domains shown)
VH: B16 VH with A33Y
VL: B16 VL with T53A
In the case of B25, the equilibrium dissociation constant (Kd) was 0.123 nM, the koff turned out to be 3.75e-05 s⁻¹ and the kon stood at 305000 M⁻¹ s⁻¹.

B26: Mu_19F07_VH (SEQ ID NO: 47)_S56A (antibody, V domains shown)
VH: B16 VH with A33Y, S56A
VL: B16 VL
On to B26, for which the Kd was 4.08 nM, the koff amounted to 0.000646 s⁻¹ and the kon was 159000 M⁻¹ s⁻¹.
